Laboratory results published in patent US20200032346.

Legend:
[1] = target: T1, peptide 10 (QMDVNPEGKYSFGATCVKK)
T1 chain: QMDVNPEGKYSFGATCVKK

[2] = target: T2, peptide 4 (ENLQIIRGNMYYENSYALAVL)
T2 chain: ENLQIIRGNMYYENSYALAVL

[3] = target: T3, peptide 15 (MGENNTLVWKYADAGHVCHLC)
T3 chain: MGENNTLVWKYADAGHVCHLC

[4] = target: T4, peptide 3 (FLKTIQEVAGYVLIALNTVER)
T4 chain: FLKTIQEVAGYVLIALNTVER

[5] = target: T5, peptide 11 (ATCVKKCPRNYVVTDHGSCVR)
T5 chain: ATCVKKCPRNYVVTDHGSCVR

[6] = target: HisTAG-EGFR^aa1-650, P00533
[7] = target: T6, peptide 1 (EVVLGNLEITYVQRNYDLSFL)
T6 chain: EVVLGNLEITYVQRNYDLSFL

[8] = target: T7, peptide 9 (PPLMLYNPTTYQMDVNPEGKY)
T7 chain: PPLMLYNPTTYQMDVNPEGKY

[9] = target: T8, peptide 6 (IRGNMYYENSYALAVLSNYDA)
T8 chain: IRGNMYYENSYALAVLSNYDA

[10] = target: T9, peptide 8 (CKDTCPPLMLYNPTTYQMDVN)
T9 chain: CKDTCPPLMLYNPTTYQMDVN

[11] = target: T10, peptide 14 (GPDNCIQCAHYIDGPHCVKTC)
T10 chain: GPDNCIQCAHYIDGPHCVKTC

[12] = target: T11, peptide 12 (SCVRACGADSYEMEEDGVRKC)
T11 chain: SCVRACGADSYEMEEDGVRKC

[13] = target: T12, peptide 16 (VCHLCHPNCTYGCTGPGLEGC)
T12 chain: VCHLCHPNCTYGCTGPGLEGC

[14] = target: T13, peptide 7 (NSYALAVLSNYDANKTGLKEL)
T13 chain: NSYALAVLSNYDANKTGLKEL

[15] = target: HisTAG-ΔEGFR N-terminusY88A, P00533
[16] = target: T14, peptide 2 (NLEITYVQRNYDLSFLKTIQE)
T14 chain: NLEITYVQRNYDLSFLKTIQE

[17] = target: T15, peptide 13 (VIISGNKNLCYANTINWKKLF)
T15 chain: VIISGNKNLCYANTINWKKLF

[18] = target: T16, mutant peptide 3 (FLKTIQEVAGAVLIALNTVER)
T16 chain: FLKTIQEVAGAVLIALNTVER

[19] = target: T17, peptide 5 (NLQIIRGNMYYENSYALAVLS)
T17 chain: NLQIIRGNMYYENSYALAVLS

B1: GST-MAN2A1-FER (protein)
chain: MKLSRQFTVFGSAIFCVVIFSLYLMLDRGHLDYPRNPRREGSFPQGQLSMLQEKIDHLERLLAENNEIISNIRDSVINLSESVEDGPKSSQSNFSQGAGSHLLPSQLSLSVDTADCLFASQSGSHNSDVQMLDVYSLISFDNPDGGVWKQGFDITYESNEWDTEPLQVFVVPHSHNDPGWLKTFNDYFRDKTQYIFNNMVLKLKEDSRRKFIWSEISYLSKWWDIIDIQKKDAVKSLIENGQLEIVTGGWVMPDEATPHYFALIDQLIEGHQWLENNIGVKPRSGWAIDPFGHSPTMAYLLNRAGLSHMLIQRVHYAVKKHFALHKTLEFFWRQNWDLGSVTDILCHMMPFYSYDIPHTCGPDPKICCQFDFKRLPGGRFGCPWGVPPETIHPGNVQSRARMLLDQYRKKSKLFRTKVLLAPLGDDFRYCEYTEWDLQFKNYQQLFDYMNSQSKFKVKIQFGTLSDFFDALDKADETQRDKGQSMFPVLSGDFFTYADRDDHYWSGYFTSRPFYKRMDRIMESHLRAAEILYYFALRQAHKYKINKFLSSSLYTALTEARRNLGLFQHHDAITGTAKDWVVVDYGTRLFHSLMVLEKIIGNSAFLLILKDKLTYDSYSPDTFLEMDLKQKSQDSLPQKNIIRLSAEPRYLVVYNPLEQDRISLVSVYVSSPTVQVFSASGKPVEVQVSAVWDTANTISETAYEGNFGEVYKGTLKDKTSVAVKTCKEDLPQELKIKFLQEAKILKQYDHPNIVKLIGVCTQRQPVYIIMELVSGGDFLTFLRRKKDELKLKQLVKFSLDAAAGMLYLESKNCIHRDLAARNCLVGENNVLKISDFGMSRQEDGGVYSSSGLKQIPIKWTAPEALNYGRYSSESDVWSFGILLWETFSLGVCPYPGMTNQQAREQVERGYRMSAPQHCPEDISKIMMKCWDYKPENRPKFSELQKELTIIKRKLT
B1 was tested, and the “phosphorylation assay on synthetic peptide” value (“phosphorylation assay” for short) [1] was “only the sequence corresponding to FLKTIQEVAGYVLIALNTVER (peptide 3) in EGFR was phosphorylated by GST-MAN2A1-FER”, the “phosphorylation assay” value [2] was “only the sequence corresponding to FLKTIQEVAGYVLIALNTVER (peptide 3) in EGFR was phosphorylated by GST-MAN2A1-FER” and the “phosphorylation assay” value [3] was “only the sequence corresponding to FLKTIQEVAGYVLIALNTVER (peptide 3) in EGFR was phosphorylated by GST-MAN2A1-FER”. For the same protein, the “phosphorylation assay” value [4] was “only the sequence corresponding to FLKTIQEVAGYVLIALNTVER (peptide 3) in EGFR was phosphorylated by GST-MAN2A1-FER”, the “phosphorylation of HisTAG-ΔEGFR^aa1-650 by GST-MAN2A1-FER with an excessive amount of peptide” value [4] was “peptide 3, but not the mutant counterpart, partially blocked the phosphorylation of EGFR N-terminus by GST-MAN2A1-FER” and the “phosphorylation assay” value [5] was “only the sequence corresponding to FLKTIQEVAGYVLIALNTVER (peptide 3) in EGFR was phosphorylated by GST-MAN2A1-FER”. The “in vitro kinase assay, phosphorylation of the substrate” value [6] was “GST-MAN2A1-FER phosphorylated the recombinant HisTAG-EGFR^aa1-650 in an ATP dosage-dependent manner”, the “phosphorylation assay” value [7] was “only the sequence corresponding to FLKTIQEVAGYVLIALNTVER (peptide 3) in EGFR was phosphorylated by GST-MAN2A1-FER” and the “phosphorylation assay” value [8] was “only the sequence corresponding to FLKTIQEVAGYVLIALNTVER (peptide 3) in EGFR was phosphorylated by GST-MAN2A1-FER”. For the same protein, the “phosphorylation assay” value [9] was “only the sequence corresponding to FLKTIQEVAGYVLIALNTVER (peptide 3) in EGFR was phosphorylated by GST-MAN2A1-FER”, the “phosphorylation assay” value [10] was “only the sequence corresponding to FLKTIQEVAGYVLIALNTVER (peptide 3) in EGFR was phosphorylated by GST-MAN2A1-FER” and the “phosphorylation assay” value [11] was “only the sequence corresponding to FLKTIQEVAGYVLIALNTVER (peptide 3) in EGFR was phosphorylated by GST-MAN2A1-FER”. The “phosphorylation assay” value [12] was “only the sequence corresponding to FLKTIQEVAGYVLIALNTVER (peptide 3) in EGFR was phosphorylated by GST-MAN2A1-FER”, the “phosphorylation assay” value [13] was “only the sequence corresponding to FLKTIQEVAGYVLIALNTVER (peptide 3) in EGFR was phosphorylated by GST-MAN2A1-FER” and the “phosphorylation assay” value [14] was “only the sequence corresponding to FLKTIQEVAGYVLIALNTVER (peptide 3) in EGFR was phosphorylated by GST-MAN2A1-FER”. The “in vitro kinase assay, phosphorylation of the substrate” value [15] was “No phosphorylation was found when Y88 was mutated to alanine in EGFR N-terminus”, the “phosphorylation assay” value [16] was “only the sequence corresponding to FLKTIQEVAGYVLIALNTVER (peptide 3) in EGFR was phosphorylated by GST-MAN2A1-FER” and the “phosphorylation assay” value [17] was “only the sequence corresponding to FLKTIQEVAGYVLIALNTVER (peptide 3) in EGFR was phosphorylated by GST-MAN2A1-FER”. For the same protein, the “phosphorylation assay” value [18] was “mutant peptide was not phosphorylated by the fusion protein”, the “phosphorylation of HisTAG-ΔEGFR^aa1-650 by GST-MAN2A1-FER with an excessive amount of peptide” value [18] was “peptide 3, but not the mutant counterpart, partially blocked the phosphorylation of EGFR N-terminus by GST-MAN2A1-FER” and the “phosphorylation assay” value [19] was “only the sequence corresponding to FLKTIQEVAGYVLIALNTVER (peptide 3) in EGFR was phosphorylated by GST-MAN2A1-FER”.
